Measured values taken from publication PMC8557155 (Annals of Nuclear Medicine, 2021).

How the values were obtained:
[1] = in vivo; cited from earlier work
Text: This study is the first clinical trial on ^177Lu-DOTATATE for unresectable NETs in Japan. At 29.6 GBq, the absorbed dose to the kidney and red bone marrow was 16.8 Gy and 0.722 Gy, respectively. These values were lower than the reported threshold dose for the kidney (23 Gy) and the red bone marrow (2 Gy). The calculated absorbed doses to the kidney, spleen, red bone marrow, and liver were 0.568, 0.559, 0.0244 and 0.247 mGy/MBq, respectively, in this study. We compared the calculated absorbed dose to each organ with previously published studies in Caucasian populations. In the prev ... || In this study, severe lymphopenia occurred in two (33.3%) cases, and other hematological toxicities were grade 1 or 2 leukocytopenia and thrombocytopenia. This finding was very similar to that reported in the Erasmus study. […] In the present study, lymphocyte, erythrocyte, and leukocyte counts gradua ...

[2] = design: species or system human (Japanese patients); settings: in vivo
clinical = test: clinical; design: species or system human (Japanese patients); settings: in vivo; for dose excreted: human, iv, 7.4 GBq, total radioactivity

In the case of `C[C@@H](O)[C@H](NC(=O)[C@@H]1CSSC[C@H](NC(=O)[C@@H](Cc2ccccc2)NC(=O)CN2CCN(CC(=O)O)CCN(CC(=O)O)CCN(CC(=O)O)CC2)C(=O)N[C@@H](Cc2ccc(O)cc2)C(=O)N[C@H](Cc2c[nH]c3ccccc23)C(=O)N[C@@H](CCCCN)C(=O)N[C@@H]([C@@H](C)O)C(=O)N1)C(=O)O` [177Lu-DOTATATE, ^177Lu-DOTA^0-Tyr^3-octreotate, metal not drawn], the “Severe lymphopenia at the follow-up visit after 3 month final treatment” value [1] is given as 25.8%, the “Severe lymphopenia at the follow-up visit after 30 months final treatment” value [1] is given as 5.6% and the “Severe lymphopenia, frequency” value [1] is given as 50.0%. For the same molecule, the “Severe renal toxicities, frequency” value [1] was 1%, the “Fraction of the injected activity retained in the blood at 20 min after the injection” value [2] was 0.00351 % dose/g and the “Fraction of the injected activity retained in the blood at 4 h after the injection” value [2] was 0.00077 % dose/g. The “Effective half-time, distribution phase” value ([2]; iv) was 2.37 ± 0.30 h, the “Effective half-time, excretion phase” value ([2]; iv) was 42.7 ± 2.44 h and the dose excreted (clinical; Biological cumulative urine excretion of radioactivity at 24 h after administration) was 71.2%. For the same molecule, the dose excreted (clinical; Biological cumulative urine excretion of radioactivity in the first 4 h) was 53.7%, the dose excreted (clinical; Cumulative urinary excretion of radioactivity within the initial 6 h) was 60.1% and the “Effective urinary radioactivity concentration, 0–1 h” value (clinical) was 4.7 ± 1.9 GBq/L. For the same molecule, the “Effective urinary radioactivity concentration, 4–6 h” value (clinical) was 1.3 ± 1.1 GBq/L, the “Effective urinary radioactivity concentration, 6–24 h” value (clinical) was 0.3 ± 0.1 GBq/L and the “Effective urinary radioactivity concentration, 24–48 h” value (clinical) was 0.07 ± 0.03 GBq/L.
